Test results taken from US20140271603A1 (LABORATOIRE FRANCAIS DU FRACTIONNEMENT ET DES …, published 2014).

Assays:
[1] = molecular target: T1, C3 convertase of the alternative pathway (C3bBb) formed on C3b-coated wells (UniProt P01024 749-1663; P01024 23-667; P00751 260-764, limits assumed); assay: cell-based or functional assay
[2] = molecular target: T1, C3 convertase of the alternative …; assay: cell-based or functional assay; remark: listed apart in the source

T1 sequence (P01024 749-1663 limits assumed, chain 1 of 3): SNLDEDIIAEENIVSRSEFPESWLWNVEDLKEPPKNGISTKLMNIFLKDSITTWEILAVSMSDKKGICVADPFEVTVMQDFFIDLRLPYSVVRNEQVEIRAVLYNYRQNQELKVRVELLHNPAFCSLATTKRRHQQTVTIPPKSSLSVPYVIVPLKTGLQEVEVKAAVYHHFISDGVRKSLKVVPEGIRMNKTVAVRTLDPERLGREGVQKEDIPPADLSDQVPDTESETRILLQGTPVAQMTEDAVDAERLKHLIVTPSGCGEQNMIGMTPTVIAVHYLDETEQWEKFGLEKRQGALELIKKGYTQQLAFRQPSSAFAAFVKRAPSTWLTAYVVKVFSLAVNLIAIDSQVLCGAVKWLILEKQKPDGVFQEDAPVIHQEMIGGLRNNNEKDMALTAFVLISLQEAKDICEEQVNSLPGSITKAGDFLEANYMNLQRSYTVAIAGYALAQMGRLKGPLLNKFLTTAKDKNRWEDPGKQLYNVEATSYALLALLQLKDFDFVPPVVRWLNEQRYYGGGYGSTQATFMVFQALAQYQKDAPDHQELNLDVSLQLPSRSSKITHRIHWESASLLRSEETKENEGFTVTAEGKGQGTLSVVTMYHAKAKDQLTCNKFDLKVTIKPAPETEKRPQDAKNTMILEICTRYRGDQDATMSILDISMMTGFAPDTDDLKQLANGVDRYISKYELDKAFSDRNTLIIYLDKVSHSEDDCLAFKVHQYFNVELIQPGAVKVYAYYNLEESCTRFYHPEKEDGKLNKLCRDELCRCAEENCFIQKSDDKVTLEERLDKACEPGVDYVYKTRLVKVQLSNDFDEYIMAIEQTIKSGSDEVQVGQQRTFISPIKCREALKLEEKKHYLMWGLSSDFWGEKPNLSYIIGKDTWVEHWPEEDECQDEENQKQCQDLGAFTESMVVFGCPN
T1 sequence (P01024 23-667 limits assumed, chain 2 of 3): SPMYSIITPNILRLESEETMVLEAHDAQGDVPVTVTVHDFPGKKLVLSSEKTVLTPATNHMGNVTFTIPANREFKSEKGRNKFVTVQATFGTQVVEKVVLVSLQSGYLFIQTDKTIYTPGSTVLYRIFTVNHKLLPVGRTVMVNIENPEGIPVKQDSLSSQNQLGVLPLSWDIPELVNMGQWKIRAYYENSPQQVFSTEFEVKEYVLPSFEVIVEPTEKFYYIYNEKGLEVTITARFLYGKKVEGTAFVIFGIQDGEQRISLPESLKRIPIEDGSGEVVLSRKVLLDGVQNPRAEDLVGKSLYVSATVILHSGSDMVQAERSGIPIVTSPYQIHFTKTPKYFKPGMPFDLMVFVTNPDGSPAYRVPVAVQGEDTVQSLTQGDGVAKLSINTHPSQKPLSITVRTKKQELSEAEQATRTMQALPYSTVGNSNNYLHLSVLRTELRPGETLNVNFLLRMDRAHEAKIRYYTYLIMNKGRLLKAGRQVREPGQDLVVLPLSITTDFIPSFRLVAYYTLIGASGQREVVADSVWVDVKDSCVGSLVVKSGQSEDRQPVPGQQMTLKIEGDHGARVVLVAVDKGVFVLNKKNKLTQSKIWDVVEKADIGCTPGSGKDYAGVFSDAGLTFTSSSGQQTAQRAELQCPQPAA
T1 sequence (P00751 260-764 limits assumed, chain 3 of 3): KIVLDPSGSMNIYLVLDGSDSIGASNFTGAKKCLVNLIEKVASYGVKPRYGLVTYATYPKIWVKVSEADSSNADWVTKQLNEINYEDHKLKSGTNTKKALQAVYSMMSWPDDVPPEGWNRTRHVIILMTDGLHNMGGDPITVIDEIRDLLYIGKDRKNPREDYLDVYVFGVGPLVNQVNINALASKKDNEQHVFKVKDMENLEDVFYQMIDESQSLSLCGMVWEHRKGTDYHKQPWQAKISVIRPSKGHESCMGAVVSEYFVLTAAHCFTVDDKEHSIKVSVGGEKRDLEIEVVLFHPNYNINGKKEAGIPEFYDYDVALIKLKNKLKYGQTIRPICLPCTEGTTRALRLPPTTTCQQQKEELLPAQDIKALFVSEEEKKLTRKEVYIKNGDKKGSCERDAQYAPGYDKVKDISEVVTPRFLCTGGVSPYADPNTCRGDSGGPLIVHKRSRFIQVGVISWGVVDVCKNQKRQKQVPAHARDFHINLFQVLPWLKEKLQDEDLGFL

B1: recombinant human factor H, H402 variant, produced in the HEK 293F cell line (other)
chain: EDCNELPPRRNTEILTGSWSDQTYPEGTQAIYKCRPGYRSLGNVIMVCRKGEWVALNPLRKCQKRPCGHPGDTPFGTFTLTGGNVFEYGVKAVYTCNEGYQLLGEINYRECDTDGWTNDIPICEVVKCLPVTAPENGKIVSSAMEPDREYHFGQAVRFVCNSGYKIEGDEEMHCSDDGFWSKEKPKCVEISCKSPDVINGSPISQKIIYKENERFQYKCNMGYEYSERGDAVCTESGWRPLPSCEEKSCDNPYIPNGDYSPLRIKHRTGDEITYQCRNGFYPATRGNTAKCTSTGWIPAPRCTLKPCDYPDIKHGGLYHENMRRPYFPVAVGKYYSYYCDEHFETPSGSYWDHIHCTQDGWSPAVPCLRKCYFPYLENGYNQNHGRKFVQGKSIDVACHPGYALPKAQTTVTCMENGWSPTPRCIRVKTCSKSSIDIENGFISESQYTYALKEKAKYQCKLGYVTADGETSGSITCGKDGWSAQPTCIKSCDIPVFMNARTKNDFTWFKLNDTLDYECHDGYESNTGSTTGSIVCGYNGWSDLPICYERECELPKIDVHLVPDRKKDQYKVGEVLKFSCKPGFTIVGPNSVQCYHFGLSPDLPICKEQVQSCGPPPELLNGNVKEKTKEEYGHSEVVEYYCNPRFLMKGPNKIQCVDGEWTTLPVCIVEESTCGDIPELEHGWAQLSSPPYYYGDSVEFNCSESFTMIGHRSITCIHGVWTQLPQCVAIDKLKKCKSSNLIILEEHLKNKKEFDHNSNIRYRCRGKEGWIHTVCINGRWDPEVNCSMAQIQLCPPPPQIPNSHNMTTTLNYRDGEKVSVLCQENYLIQEGEEITCKDGRWQSIPLCVEKIPCSQPPQIEHGTINSSRSSQESYAHGTKLSYTCEGGFRISEENETTCYMGKWSSPPQCEGLPCKSPPEISHGVVAHMSDSYQYGEEVTYKCFEGFGIDGPAIAKCLGEKWSHPPSCIKTDCLSLPSFENAIPMGEKKDVYKAGEQVTYTCATYYKMDGASNVTCINSRWTGRPTCRDTSCVNPPTVQNAYIVSRQMSKYPSGERVRYQCRSPYEMFGDEEVMCLNGNWTEPPQCKDSTGKCGPPPPIDNGDITSFPLSVYAPASSVEYQCQNLYQLEGNKRITCRNGQWSEPPKCLHPCVISREIMENYNIALRWTAKQKLYSRTGESVEFVCKRGYRLSSRSHTLRTTCWDGKLEYPTCAKR
- IC50, acceleration of the dissociation of C3 convertase (culture supernatant HEK MD2-H402) [1]: 0.052 µg/mL

B2: recombinant human factor H, Y402 variant, produced in the HEK 293F cell line (other)
chain: EDCNELPPRRNTEILTGSWSDQTYPEGTQAIYKCRPGYRSLGNVIMVCRKGEWVALNPLRKCQKRPCGHPGDTPFGTFTLTGGNVFEYGVKAVYTCNEGYQLLGEINYRECDTDGWTNDIPICEVVKCLPVTAPENGKIVSSAMEPDREYHFGQAVRFVCNSGYKIEGDEEMHCSDDGFWSKEKPKCVEISCKSPDVINGSPISQKIIYKENERFQYKCNMGYEYSERGDAVCTESGWRPLPSCEEKSCDNPYIPNGDYSPLRIKHRTGDEITYQCRNGFYPATRGNTAKCTSTGWIPAPRCTLKPCDYPDIKHGGLYHENMRRPYFPVAVGKYYSYYCDEHFETPSGSYWDHIHCTQDGWSPAVPCLRKCYFPYLENGYNQNYGRKFVQGKSIDVACHPGYALPKAQTTVTCMENGWSPTPRCIRVKTCSKSSIDIENGFISESQYTYALKEKAKYQCKLGYVTADGETSGSITCGKDGWSAQPTCIKSCDIPVFMNARTKNDFTWFKLNDTLDYECHDGYESNTGSTTGSIVCGYNGWSDLPICYERECELPKIDVHLVPDRKKDQYKVGEVLKFSCKPGFTIVGPNSVQCYHFGLSPDLPICKEQVQSCGPPPELLNGNVKEKTKEEYGHSEVVEYYCNPRFLMKGPNKIQCVDGEWTTLPVCIVEESTCGDIPELEHGWAQLSSPPYYYGDSVEFNCSESFTMIGHRSITCIHGVWTQLPQCVAIDKLKKCKSSNLIILEEHLKNKKEFDHNSNIRYRCRGKEGWIHTVCINGRWDPEVNCSMAQIQLCPPPPQIPNSHNMTTTLNYRDGEKVSVLCQENYLIQEGEEITCKDGRWQSIPLCVEKIPCSQPPQIEHGTINSSRSSQESYAHGTKLSYTCEGGFRISEENETTCYMGKWSSPPQCEGLPCKSPPEISHGVVAHMSDSYQYGEEVTYKCFEGFGIDGPAIAKCLGEKWSHPPSCIKTDCLSLPSFENAIPMGEKKDVYKAGEQVTYTCATYYKMDGASNVTCINSRWTGRPTCRDTSCVNPPTVQNAYIVSRQMSKYPSGERVRYQCRSPYEMFGDEEVMCLNGNWTEPPQCKDSTGKCGPPPPIDNGDITSFPLSVYAPASSVEYQCQNLYQLEGNKRITCRNGQWSEPPKCLHPCVISREIMENYNIALRWTAKQKLYSRTGESVEFVCKRGYRLSSRSHTLRTTCWDGKLEYPTCAKR
- IC50, acceleration of the dissociation of C3 convertase (culture supernatant HEK MD1-Y402) [1]: 0.0538 µg/mL
- IC50, acceleration of the dissociation of C3 convertase (culture supernatant HEK MD2-Y402) [1]: 0.0507 µg/mL
- IC50, acceleration of the dissociation of C3 convertase (culture supernatant HEK MD3-Y402) [1]: 0.0528 µg/mL
- IC50, acceleration of the dissociation of C3 convertase (sample: Purified FH HEK) [2]: 0.0506 µg/mL

B3: recombinant human factor H, Y402 variant, produced in the PER.C6 cell line (other)
chain: EDCNELPPRRNTEILTGSWSDQTYPEGTQAIYKCRPGYRSLGNVIMVCRKGEWVALNPLRKCQKRPCGHPGDTPFGTFTLTGGNVFEYGVKAVYTCNEGYQLLGEINYRECDTDGWTNDIPICEVVKCLPVTAPENGKIVSSAMEPDREYHFGQAVRFVCNSGYKIEGDEEMHCSDDGFWSKEKPKCVEISCKSPDVINGSPISQKIIYKENERFQYKCNMGYEYSERGDAVCTESGWRPLPSCEEKSCDNPYIPNGDYSPLRIKHRTGDEITYQCRNGFYPATRGNTAKCTSTGWIPAPRCTLKPCDYPDIKHGGLYHENMRRPYFPVAVGKYYSYYCDEHFETPSGSYWDHIHCTQDGWSPAVPCLRKCYFPYLENGYNQNYGRKFVQGKSIDVACHPGYALPKAQTTVTCMENGWSPTPRCIRVKTCSKSSIDIENGFISESQYTYALKEKAKYQCKLGYVTADGETSGSITCGKDGWSAQPTCIKSCDIPVFMNARTKNDFTWFKLNDTLDYECHDGYESNTGSTTGSIVCGYNGWSDLPICYERECELPKIDVHLVPDRKKDQYKVGEVLKFSCKPGFTIVGPNSVQCYHFGLSPDLPICKEQVQSCGPPPELLNGNVKEKTKEEYGHSEVVEYYCNPRFLMKGPNKIQCVDGEWTTLPVCIVEESTCGDIPELEHGWAQLSSPPYYYGDSVEFNCSESFTMIGHRSITCIHGVWTQLPQCVAIDKLKKCKSSNLIILEEHLKNKKEFDHNSNIRYRCRGKEGWIHTVCINGRWDPEVNCSMAQIQLCPPPPQIPNSHNMTTTLNYRDGEKVSVLCQENYLIQEGEEITCKDGRWQSIPLCVEKIPCSQPPQIEHGTINSSRSSQESYAHGTKLSYTCEGGFRISEENETTCYMGKWSSPPQCEGLPCKSPPEISHGVVAHMSDSYQYGEEVTYKCFEGFGIDGPAIAKCLGEKWSHPPSCIKTDCLSLPSFENAIPMGEKKDVYKAGEQVTYTCATYYKMDGASNVTCINSRWTGRPTCRDTSCVNPPTVQNAYIVSRQMSKYPSGERVRYQCRSPYEMFGDEEVMCLNGNWTEPPQCKDSTGKCGPPPPIDNGDITSFPLSVYAPASSVEYQCQNLYQLEGNKRITCRNGQWSEPPKCLHPCVISREIMENYNIALRWTAKQKLYSRTGESVEFVCKRGYRLSSRSHTLRTTCWDGKLEYPTCAKR
- IC50, acceleration of the dissociation of C3 convertase (culture supernatant PERC6 MD2-Y402) [1]: 0.0487 µg/mL
- IC50, acceleration of the dissociation of C3 convertase (culture supernatant PERC6 MD3-Y402) [1]: 0.0559 µg/mL
- IC50, acceleration of the dissociation of C3 convertase (sample: Purified FH PER.C6) [2]: 0.0451 µg/mL

B4: recombinant human factor H, H402 variant, produced in the PER.C6 cell line (other)
chain: EDCNELPPRRNTEILTGSWSDQTYPEGTQAIYKCRPGYRSLGNVIMVCRKGEWVALNPLRKCQKRPCGHPGDTPFGTFTLTGGNVFEYGVKAVYTCNEGYQLLGEINYRECDTDGWTNDIPICEVVKCLPVTAPENGKIVSSAMEPDREYHFGQAVRFVCNSGYKIEGDEEMHCSDDGFWSKEKPKCVEISCKSPDVINGSPISQKIIYKENERFQYKCNMGYEYSERGDAVCTESGWRPLPSCEEKSCDNPYIPNGDYSPLRIKHRTGDEITYQCRNGFYPATRGNTAKCTSTGWIPAPRCTLKPCDYPDIKHGGLYHENMRRPYFPVAVGKYYSYYCDEHFETPSGSYWDHIHCTQDGWSPAVPCLRKCYFPYLENGYNQNHGRKFVQGKSIDVACHPGYALPKAQTTVTCMENGWSPTPRCIRVKTCSKSSIDIENGFISESQYTYALKEKAKYQCKLGYVTADGETSGSITCGKDGWSAQPTCIKSCDIPVFMNARTKNDFTWFKLNDTLDYECHDGYESNTGSTTGSIVCGYNGWSDLPICYERECELPKIDVHLVPDRKKDQYKVGEVLKFSCKPGFTIVGPNSVQCYHFGLSPDLPICKEQVQSCGPPPELLNGNVKEKTKEEYGHSEVVEYYCNPRFLMKGPNKIQCVDGEWTTLPVCIVEESTCGDIPELEHGWAQLSSPPYYYGDSVEFNCSESFTMIGHRSITCIHGVWTQLPQCVAIDKLKKCKSSNLIILEEHLKNKKEFDHNSNIRYRCRGKEGWIHTVCINGRWDPEVNCSMAQIQLCPPPPQIPNSHNMTTTLNYRDGEKVSVLCQENYLIQEGEEITCKDGRWQSIPLCVEKIPCSQPPQIEHGTINSSRSSQESYAHGTKLSYTCEGGFRISEENETTCYMGKWSSPPQCEGLPCKSPPEISHGVVAHMSDSYQYGEEVTYKCFEGFGIDGPAIAKCLGEKWSHPPSCIKTDCLSLPSFENAIPMGEKKDVYKAGEQVTYTCATYYKMDGASNVTCINSRWTGRPTCRDTSCVNPPTVQNAYIVSRQMSKYPSGERVRYQCRSPYEMFGDEEVMCLNGNWTEPPQCKDSTGKCGPPPPIDNGDITSFPLSVYAPASSVEYQCQNLYQLEGNKRITCRNGQWSEPPKCLHPCVISREIMENYNIALRWTAKQKLYSRTGESVEFVCKRGYRLSSRSHTLRTTCWDGKLEYPTCAKR
- IC50, acceleration of the dissociation of C3 convertase (culture supernatant PERC6 MD2-H402) [1]: 0.0546 µg/mL
